Experimental data as given in the DeepSol protein solubility set.

Assay: soluble on expression in E. coli; label from the status in PepcDB or PDB records

| Sequence | soluble on expression in E. coli |
| --- | --- |
| MPDKKREVSLSHRLQEVASFVPKGARLLDVGSDHAYLPIYLLEQGLIDFAVAGEIIKGPYESAVANVSESELSGQIAVRLADGLAALNDNDDIDLITICGMGGRLIADILAAGSDKLNSVKQLILQPNNCEDDLRSWLVANDFMIKAEKMVKDRHKYYEILVVEKGKITLSDKDLRFGPFLRQERSSIFKERWRKELAKLELALTKVPAKKKADNMFLSTKIEQIKEVLYES | not soluble |
| MGSDKIHHHHHHMVNDMQERQNRYWQLLHQPDRLLLLHQASSVEQFVTLMGDWLAWPELTLDQMLDFVHMQRWEDFTPKLALFSQAWLPYRYCSQSKEVYWIPAFNQLSKPFLEDDISDIRLGLLAIFIQPKTLLKSLLTQCDSVPEIHPCLMIFHWSRCGSTLVSSSFSKLNDCLVISESMLCSDIMRDDFWSQEVKVKLVDLCLRLQGRFRHGERHLVVKWNAWDLAYWPMLLALYPQSRVLCLIRNPKDILASHQRLAGRHMVEGQGLLSTEWHIQQIETVSTTFSLNKFRISVLQHLAQLTHALLNSNRAILLDYQQVKDFHPTTLSTILGRPLSMDEIECWQDHWCFDAKQQGQVFTPAVSNQPVPLRELQSPSWQQLFMTYNQLLQRLYWDKKHDV | not soluble |
| MEVDEDIELQKHQEQQSRKLQRFSEDNTGLMRNWNNPSSRIIRVSRASGGKDRHSKVLTSKGLRDRRIRLSVATAIQFYDLQDRLGFDQPSKAVEWLINAASDSITDLPLLNTNFDHLDQNQNQTKSACSSGTSESSLLSLSRTEIRGKARERARERTAKDRDKDLQNAHSSFTQLLTGGFDQQPSNRNWTGGSDCFNPVQLQIPNSSSQEPMNHPFSFVPDYNFGISSSSSAINGGYSSRGTLQSNSQSLFLNNNNNITQRSSISSSSSSSSPMDSQSISFFMATPPPLDHHNHQLPETFDGRLYLYYGEGNRSSDDKAKERR | not soluble |
| MALAPHAVHRLYEYRKSISTKPFGARGKKLIRCPLCLLGEQFCTCSLRKQLTTQASFLLIMYNDEVLKPTNSGRLIADLIPDTHAFLWSRTDPAPELLALLSSDHYQPFLVFPAQYADQGQTVLSQVPMATLAKGKRPLLIMLDGSWREAIKMFRKSPYLQGLPILSFDPDTLATYALRKGSHDFQLGTAEVASLALAAMGEEANGKALTAWFDLFVESSLLGRNRRCREDILPISDFTNAFEVAYTAATP | not soluble |
| MSENNKIILYQDDNEIIRVSVRFSDEDLWLTQNQLAEIYCTTQQNISQHVDNIYKDGELFTEATNKKFLLVRQEGNRQVRRNIDHYNLDMVIALGYRVQSQVATRFRRWATQRLHEYIQKGFAMDDERLKQGGNRYFRELLQRIRDIRSSERNFYQQVTDIYATATDYDPRDEMTKMFFATVQNKLHYAVHENTAAEVIYNRVDNEKPFVGMTNFKGNYVTKDDVKIAKNYLSEIELQRLNLLVSGFLDFAEFQALEMNPMTMKDWIEALDNQIIAHKRKVLIDKGRISHKQAIEKAEKEFAIYRKREMDLLESDFDKEIKRLKDKNDNNPN | not soluble |
| MNLFGQKDRGNHVSGVDRGKVIMYGLSTCVWCKKTKKLLTDLGVDFDYVYVDRLEGKEEEEAVEEVRRFNPSVSFPTTIINDEKAIVGFKEKEIRESLGF | soluble |
| MGLGRVITRSLSSVEPALSQKLTIQPAIERSPTDLLNALSETVGPDTTAPHFAYIDDPITIPSTQSTKKTYFMAKEFGKRAARELATEWPTLFAFDRDQPQLPVFRPRHLADPLQVEPTENNLLKMISSREVKDSCILYERMRSENVDVSEKVQLELFRLVTYYNSSNVPFAEWEEFVGMRNFGEDSTSSWKSGAVADLLFETLPKTDETVSIMIAGLCKFSDHSSLERARELYKEHRAAKGKVYREAFNGLIGASSYSVGKKLVAEMISLRMTPDIFTFNALLSSAAKAGKFEDRVKAFTEIIGEMKEIGVEPALSSFHLIIKNIIDFKLLDNEKRESDEQKKTYNHQLTVAISWLNEIQNSLTGKTLKPITSTCNLFFVEAMGIHYRAANENLAENLVSIYESKANEVKMPAFTIESMFYNRQLQLAVEQSASLNRIYDLYTTMVPRLVGVNNYLSSLVFRKLAASSDRHWPLLRRVIIDGIAAGQMNGVIGEEMRKQLCNVQLHTLGTSEREQFTSLVQKLVAVWVEFSQFTEERMRRLQRKLSPSQISECALLLTRIGEQQKAYELLDLLLDETASSGDEATVYPRGHARPWAMAELFEDALRKRDTYAAATCLQIMSLTANRAKLEPLANRIFEKCNVNQEQVRIIQGFIRLRPQ | not soluble |
| MGSDKIHHHHHHMKTTALRLYGKRDLRLETFDLPEMQEDEILATVVTDSLCLSSWKEANLGENHKKVPDDVTTNPIIIGHEFCGDILAVGKKWQHKFQPGQRYVIQANLQLPDRPDCPGYSFPWVDGEATHVVIPNEVMEQYCLLAYDGETYFEGSLVEPLSCVIGAFNANYHLQEGSYNHTMGIRPQGHTLILGGTGPMGLLAIDYALHGPVNPSLLVITDTDNDKLSYARKHYPSEPQTLIHYLNATDAAFDTLMALSGGHGFDDIFVFVPNEGLVTLASSLLATDGCLNFFAGPQDKHFSAPINFYDVHYAFTHYVGTSGGNTDDMRAAVKLIEEKKVQAAKVVTHILGLNAAGETTLELPAVGGGKKLVYTGKYLPLTSLTQIQDQALAAILARHQGIWSGEVEQYLLAHAEAISHD | not soluble |
| MSDITLDIADFHWVTQILDTMDSGLIVLDPEYNVCVWNSFMQSYSGVLSQDILGQCLFDHFDELPRTWLETKLKASADLETRSFSSWENRPYLFKFNNFSPVSNSCDFMFQDIVITPLRSLSGEVSHIAIQVNDVSETARNRIHLRETNQHLSEISRKDGL | not soluble |
| MGSDKIHHHHHHMKLPPLQIGDLKADIPIIQGGMGVGISRSSLASAVANCGGVGTISGVQIGFDEPDFETNTFNANIRALNKHIKKAKQESKRGIIAVNFMVAMNDYDKYVKSAVDAGADLIVSGAGLPTALPKIVEGSKVKIAPIVSSPKAASVICKMWDKHHGRIPDLIVVEGPEAGGHLGFKAEQVKGSHEELSDILTGVLTAIKPFEEKHGVKIPVVCGGGVFYGKDIAKYIKLGASGVQMATRFIATEECDANLNYKNVYVNCKEDDIKIVKSPVGMPGRAISNKFVQSNDKNITITKCYNCLKPCNPKDTPYCISKALINAVNGNVDEALLFTGAKSYKIDKIVKVKELINELISDAECEF | not soluble |
| MKVDLNADAGESYGAFAYGHDREIFPLVSSANLACGFHGGSPGRILEAVRLAKAHGVAVGAHPGFPDLVGFGRREMALSPEEVYADVLYQIGALSAFLKAEGLPLHHVKPHGALYLKACRDRETARAIALAVKAFDPGLPLVVLPGTVYEEEARKAGLRVVLEAFPERAYLRSGQLAPRSMPGSWITDPEEAARRALRMVLEGKVEALDGGEVAVRADTLCIHGDNPNAPEVARAVREALEQAGVEVRAF | soluble |
| MGSDKIHHHHHHMRLAFFGDVHGNFEALKAVLEDMENKGVDEVFCLGDLVGYGPDPEAVVQTIMEKNIKTIMGNYDDAVGYSKESCGCSYAPGRETEVGDISLKWSIENTSEKTREFLRNLPKKLSFEVEGVRFLLVHGSPLNELLEYVKPNTPPDRLKKIVESVEENVVVNGHTHLPMVKWVMGKLVLNPGSAGRPKDGDPRASYMIVDVENGTVSFEIVRVRYDVKTTVEKIARNGLPVELATVLALGQTFDMGPGKVTFTLGR | not soluble |
| MSLKIAKVEALSVAMGDGTGWMPTSAFVRITAEDGTVGWGEASPMLGGIASLGVVARDIAPFLEGQEVLDHAVLLDRMMHRLVKLGPEGIATAALAACDIALWDLKGKLLGQPIYKLLGGAWRTRLPCYSSIGGNAARSVDEVVREVARRVEAEQPAAVKIRWDGDRTRCDVDIPGDIAKARAVRELLGPDAVIGFDANNGYSVGGAIRVGRALEDLGYSWFEEPVQHYHVGAMGEVAQRLDITVSAGEQTYTLQALKDLILSGVRMVQPDIVKMGGITGMMQCAALAHAHGVEFVPHQTQPGVGHFANIHVLSTLMHMTKPVELADRWDRGRPVFRNPAEPVDGHFALGDAPGLGIVVDEDELASRATEITVGRDQRPPAGGQYEGHHHHHH | soluble |
| TKIAMANFKSAMPIFKSHAYLKELEKTLKPQHFDRVFVFPDFFGLLPNSFLHFTLGVQNAYPRDCGAFTGEITSKHLEELKIHTLLIGHSERRTLLKESPSFLKEKFDFFKSKNFKIVYCIGEELTTREKGFKAVKEFLSEQLENIDLNYPNLVVAYEPIWAIGTKKSASLEDIYLTHGFLKQILNQKTPLLYGGSVNTQNAKEILGIDSVDGLLIGSASWELENFKTIISFL | soluble |
| MILGPDGKPIKKPETSEIARVLHTFSAFMKSLPNPDIILKKTGKTAEIFEEMKTDAHVWAELTKRKSGVLSKDWDILPASNDRRDLEIAAFVKETFERLNFDQDMRTKTCGKCSMPCSRAGTCTN | not soluble |
| MGSDKIHHHHHHMAFNFGCLNSPETVSSALATRENSLGLAIDPFLAPVAMVATQDIVLRQYFRERIVLGQENLPMQGPVLLAPTHRSRWDALMLPMAAGRRVTGRDCRFMVTVDEMKGLQGWFLHRLGCFPVNQSKPSLTSLRYAIDLMADGQQVVVFPEGTINRTEKPIKLYQGLARLAQLAKSQNIDVQVVPVGLGYSEVIPKACGRASICFAEPMKVLETGREAVKSFNAELSEKMHAAEQAALHAVGRLKKAP | not soluble |
| MKIVKAEVFVTCPGRNFVTLKITTEDGITGLGDATLNGRELSVASYLQDHLCPRLIGRDAHRIEDIWQFFYKGAYWRRGPVTMSAISAVDMALWDIKAKAANMPLYQLLGGASREGVMVYCHTTGHSIDEALDDYARHQELGFKAIRVQCGIPGMKTTYGMSKGKGLAYEPATKGQWPEEQLWSTEKYLDFMPKLFDAVRNKFGFNEHLLHDMHHRLTPIEAARFGKSIEDYRMFWMEDPTPAENQECFRLIRQHTVTPIAVGEVFNSIWDCKQLIEEQLIDYIRTTLTHAGGITGMRRIADFASLYQVRTGSHGPSDLSPVCMAAALHFDLWVPNFGVQEYMGYSEQMLEVFPHNWTFDNGYMHPGDKPGLGIEFDEKLAAKYPYEPAYLPVARLEDGTLWNR | not soluble |
| MTTMSGYTRSQRPRQAILGQLPRIHRADGSPIRVLLVDDEPALTNLVKMALHYEGWDVEVAHDGQEAIAKFDKVGPDVLVLDIMLPDVDGLEILRRVRESDVYTPTLFLTARDSVMDRVTGLTSGADDYMTKPFSLEELVARLRGLLRRSSHLERPADEALRVGDLTLDGASREVTRDGTPISLSSTEFELLRFLMRNPRRALSRTEILDRVWNYDFAGRTSIVDLYISYLRKKIDSDREPMIHTVRGIGYMLRPPE | not soluble |
| PVSWVLQQAPTVKGLDIQGAHGSVWQGQASSVRWQRQNLGQVNWDFQWSSLFTGKAEFSVRFGRGSDMNIRGRGLVGYSLSDGLYAENLVASIPASKAVEQARLPVPIGVDGQLELNIRHATYAAPWCKTGEGTLVWSASGIQSPVGSLELGPVIADLKCQDSVLTASGEQTSTQVSSAFSAEMMPNQRYSTKAWFKPGADFPSSMGEQLKWLGQPNAQGQYEFDYKGRF | not soluble |
| MAHHHHHHMVDLLQRALANPFQDKLTFSPEDWDAHGLQPYQRCLREPFLRGCDTLVHKIRMQRIDFAKGILEQVVEDVQFRQKWGSLGEDYVTENAVQLTAYIFDSQERSLGGRRDPRKEDGAAQNIVYQPSTLSLGGDPALESLVTCVWFLRRDVLLLHQDFCYPVCEGRLTVFGRVQVALLRFYVRHAIKPRLLFLRQQHRGTLVVVELMMIGFAFCVERLMRPGLTCSGTVARRIRRVQGGTASSTSTGSGLVSGVHGEDSVAAASSGGGSAGGGGGGGGGGKLHCRPGRRRRWVVVM | not soluble |
| MAATMNEGNAQHAWDLMKKITFAMLATRDGEKIRSRPMAAYVRPEEGAIYFLTDVRRHKDEEIAQDHHVNLGFANASAQKYVSVTGYAAISNDRAKIKELFGTEAKAWWDSADDPNIRVLKVTPEEAEYWDSPGSLISYAKMMVAAATGNRPDLGENAKVAI | not soluble |
